Data from patent publication US20250019450A1 (DIAGONAL THERAPEUTICS, published 2025).
Numbering of substitutions follows the chain as printed. Each block holds one binder with its values, some of them ahead of it.

What was measured:
[1] = molecular target: T1, human IL-12RB1 overexpressed on 293T cells (Example 2) (human, UniProt P42701 24-662); assay: FACS, hybridoma supernatant, 293T
T1 construct: whole, on cells

[2] = molecular target: T2, cyno IL-12RB1 overexpressed on 293T cells (Example 2) (cyno, UniProt A0A2K5VWV1 24-662); assay: FACS, hybridoma supernatant, 293T
T2 construct: whole, on cells

[3] = molecular target: T3, IL-12 receptor endogenously expressed on THP-1 cells (UniProt P42701 24-662; Q99665 24-862); assay: FACS, hybridoma supernatant, THP-1
T3 construct: whole, on cells

Fold over parental 293T [1]: 114 fold | Fold over parental 293T [2]: 56 fold | Fold over buffer [3]: 35 fold
B2: 85801_02011 (antibody, V domains shown)
VH: EVQLVESGGGLVQPGGSLRLSCAASGFTFSSYDMNWVRQAPGKGLEWISYINSRSSTIYYADSVKGRFTISRDNAKNSLYLQMNSLRDEDTALYYCAREIEDSMDVWGQGTTVTVSS
VL: QSVLTQPPSVSAAPGQKVTISCSGSSSNIGNNYVSWYQQLPGTAPKLLIYDNNERPSGIPDRFSGSKSGTSATLGITGLQPGDEADYYCGTWDSSLSAGVFGGGTKLTVL
notes: also called 85801_02O11A

Fold over parental 293T [1]: 192 fold | Fold over parental 293T [2]: 71 fold | Fold over buffer [3]: 45 fold
B3: 85801_04M12 (antibody, V domains shown)
VH: QVQLVESGGGVVQPGRSLRLSCAASGFTFSSHGMHWVRQAPGKGLEWVAIIWYAGNKKYYADSVKGRFTISRDNSKNTLYLQMNSLRAEDTAVYYCARESLLNSASDIWGQGTMVTVSS
VL: B2 VL with K17T, E54K, P81T, G99V
notes: also called 85801_04M12A

Fold over parental 293T [1]: 57 fold | Fold over parental 293T [2]: 21 fold | Fold over buffer [3]: 37 fold
B7: 85801_07A01 (antibody, V domains shown)
VH: EVQLVESGGGLVQPGGSLRLSCAASGFTFSSYWMSWVRQAPGKGLEWVANIKQDGSEKYYVDSVKGRFTISRDNAKNSLYLQMNSLRAEDTAVYYCAREGLQLGIFDYWGQGTLVTVSS
VL: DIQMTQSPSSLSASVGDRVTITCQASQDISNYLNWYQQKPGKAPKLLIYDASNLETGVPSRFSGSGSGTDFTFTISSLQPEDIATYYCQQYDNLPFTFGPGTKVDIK
notes: also called 85801_07A01A

Fold over parental 293T [1]: 107 fold | Fold over parental 293T [2]: 13 fold | Fold over buffer [3]: 38 fold
B8: 85801_01002 (antibody, V domains shown)
VH: QVQLVQSGAEVRKPGASVKVSCKASGYTFTDYYMHWVRQAPGQGLEWMGWINPDNGGANYAQRFLGRVTMTRDTSISTAYMELSRLRSDDTAVYYCAREGSGSPYAFDLWGLGTVVTVSS
VL: DIQLTQSPSFLSASVGDRVTITCRASQGISSYLAWYQQKPGKAPKLLIYAASTLQSGVPSRFSGSGSGTEFTLTISSLQPEDFATYCCQQLNRYPFTFGQGTKLEIK
notes: also called 85801_01O02A

Fold over parental 293T [1]: 41 fold | Fold over parental 293T [2]: 16 fold | Fold over buffer [3]: 8 fold
B11: 85801_10F19 (antibody, V domains shown)
VH: QVQLVQSGAEVRKPGASVKVSCKASGYTFTDYYMHWVRQAPGQGREWMGWINPNSGGTHYAQKFQGRVTMTWDTSISTAYMELSRLRSDDTAVYYCAREGATTVYFDYWGQGTLVTVSS
VL: B8 VL with I21L, S30N, S31N, Q38E, K45N, L46P, A50D, C87Y, R93M, F96Y
notes: also called 85801_10F19A

Fold over parental 293T [1]: 58 fold | Fold over parental 293T [2]: 21 fold | Fold over buffer [3]: 35 fold
B14: 85801_10M19 (antibody, V domains shown)
VH: EVQLVESGGGLVQPGGSLRLSCAASGFTFSSYDMHWVRQATGKGLEWVSVIGTAGDTYYPGSVKGRFTISRENAKNSLYLQMNSLRAGDTAVYYCARSRGETDWYFDLWGRGTLVTVSS
VL: EIVLTQSPATLSLSPGERATLSCRASQSVSRLLAWYQQKPGQAPRLLIYDASNRATGIPARFSGSGSGTDFTLTISSLEPEDFAVYYCQQRRNWLTFGGGTKVEIK
notes: also called 85801_10M19A

Fold over parental 293T [1]: 311 fold | Fold over parental 293T [2]: 118 fold | Fold over buffer [3]: 56 fold
B15: 85801_05F05 (antibody, V domains shown)
VH: QVQLQQWGAGLLKPSETLSLTCAVYGGSFSGYYWNWIRQPPGKGLEWIGEINHSGSTHYNPSLKSRVTISVDTSKNQFSLKLSSVTAADTALYYCARALTGYFDYWGQGTLVTVSS
VL: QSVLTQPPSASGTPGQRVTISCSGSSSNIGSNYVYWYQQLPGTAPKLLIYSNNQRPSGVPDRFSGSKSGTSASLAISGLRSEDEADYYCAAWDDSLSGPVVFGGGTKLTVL
notes: also called 85801_05F05A

Fold over parental 293T [1]: 73 fold | Fold over parental 293T [2]: 25 fold | Fold over buffer [3]: 9 fold
B17: 85801_06L19 (antibody, V domains shown)
VH: QVQLVQSGAEVKKPGASVKVSCKASGYTFTDYYIHWVRQAPGQGLEWMGWINPDSGGTHYAQKFQGRVTMTRDTSISTVYMDLSRLRSDDTAVYYCAREGEGLASFDSWGQGTLVTVSS
VL: DIQMTQSPSSLSASVGNRVTITCRASQGINNYLAWFQQKPGKAPKSLIYAASSLQSGVPSKFSGSGSGTDFTLTISSLQPEDFATYYCQQYNNYPFTFGPGTKVDIK
notes: also called 85801_06L19A

Fold over parental 293T [1]: 170 fold | Fold over parental 293T [2]: 73 fold | Fold over buffer [3]: 7 fold
B18: 85801_05G01 (antibody, V domains shown)
VH: QVQLVQSGAEVKKPGASAKVSCKASGYTFTDYYLHWVRQAPGQGLEWMGWINPNNGGTHYAQKFQGRVTMTRDTSISTAYMELSRLRSDDTAVYYCAREMGGTTAFDYWGQGTLVTVSS
VL: B17 VL with N17D, N30G, K39R, E81A, T85I, N93I, F96Y, K103R, V104L, D105E
notes: also called 85801_05G01A

The next lines start with the binder.

B1: 85801_01M07 (antibody, V domains shown)
VH: QVQLVQSGAEVKKPGASVKVSCKASEYTFTDDYMHWVRQAPGQGLVWMGWINPNSGGTNYAQKFQGRVTMTRDTSISTAYMELSRLRSDDTAVYYCARGGLNWGWDWFDPWGQGTLVTVSS
VL: EIVLTQSPGTLSLSPGERATLSCRASQNINNNYLAWYQRKPGQAPRLLIYGASSRATGIPDRFSGSGSGTDFTLTISRLEPEDFAMYYCQQYGSSLTFGGGTKVEIK
notes: also called 85801_01M07A
Fold over parental 293T [1]: 91 fold | Fold over parental 293T [2]: 28 fold | Fold over buffer [3]: 7 fold

B4: 85801_03P23 (antibody, V domains shown)
VH: EVQLVESGGGLVQPGGSLRLSCAASGFTFSSYWMSWVRQAPGKGLEWVANIKQDGSEKYYVDSVKGRFTISRDNAKNSLYLQMNSLRAEDTAVYYCARGSIAAPFDYWGQGTLVTVSS
VL: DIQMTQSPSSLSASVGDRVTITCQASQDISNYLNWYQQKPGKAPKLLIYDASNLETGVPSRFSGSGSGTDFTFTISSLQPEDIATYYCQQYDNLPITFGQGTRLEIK
notes: also called 85801_03P23A
Fold over parental 293T [1]: 69 fold | Fold over parental 293T [2]: 23 fold | Fold over buffer [3]: 39 fold

B5: 85801_04G23 (antibody, V domains shown)
VH: QVQLVESGGGVVQPGRSLRLSCAASGFTFSSYGMHWVRQAPGKGLEWVAVIWNDGSNKYYADSVKGRFTISRDNSKNTLYLQMNSLRAEDTAVYYCARGELFFDYWGQGTLVTVSS
VL: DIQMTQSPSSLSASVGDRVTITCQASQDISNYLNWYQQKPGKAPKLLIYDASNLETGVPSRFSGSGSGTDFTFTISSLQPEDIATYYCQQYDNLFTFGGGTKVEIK
notes: also called 85801_04G23A
Fold over parental 293T [1]: 73 fold | Fold over parental 293T [2]: 27 fold | Fold over buffer [3]: 46 fold

B6: 85801_04M04 (antibody, V domains shown)
VH: QVQLVQSGAEVKKPGASVRVSCKASGYTFTSYYIHWVRQAPGQGLEWMGIINPSGGSTSYAQKFQGRVTMTRDTSTTTVYMELSSLRSEDTAVYYCAKSNWAYAFDIWGQGTMVTVSS
VL: SSELTQDPAVSVALGQTVRITCQGDSLSSYYAGWYQQKPGQAPVLVIYGKNNRPSGIPDRFSGSSSEDTASLTITGAQAEDEADYYCNSRDSSDNHLVFGGGTKLTVL
notes: also called 85801_04M04A
Fold over parental 293T [1]: 620 fold | Fold over parental 293T [2]: 195 fold | Fold over buffer [3]: 12 fold

B9: 85801_02N03 (antibody, V domains shown)
VH: QVHLVQSGAEVKKPGASVKVSCEASGYTFTDYYIHWLRQAPGQGLEWMGWINPNSGGTHYAQKFQGRVTMTRDTSISTAYMELSRLSSDDTAVYYCAREGGWNYFSGMDVWGQGTTVTVSS
VL: B8 VL with K39Q, A43P, Q55H, C87Y, F96Y, F98C
notes: also called 85801_02N03A
Fold over parental 293T [1]: 221 fold | Fold over parental 293T [2]: 85 fold | Fold over buffer [3]: 41 fold

B10: 85801_04M10 (antibody, V domains shown)
VH: QVQLQESGPGLVKPSETLSLTCTVSGGSISSYYWSWIRQPAGTGLEWIGRFYTSGSTIYNPSLESRVTMSVDTSKNQFSLKLSSVTAADTAVYYCATERDYPHDAFDIWGQGTMVTVSS
VL: B8 VL with T22P, G28D, Y32F, K45N, C87Y, R93G, F96L, Q100G, L104V
notes: also called 85801_04M10A
Fold over parental 293T [1]: 336 fold | Fold over parental 293T [2]: 122 fold | Fold over buffer [3]: 36 fold

B12: 85801_04D14 (antibody, V domains shown)
VH: QVHLVQSGAEVKKPGASVKVSCKASGYTFIDYYMHWVRQAPGQGLEWMGWINPNSGGTHYSQKFQGRVTMTWDTSISTAYMELSRLTSDDTAVYYCAREGDYISSSAFDYWGQGTLVTVSS
VL: B8 VL with L46V, Q79L, C87F, N92H, F96Y, T102A
notes: also called 85801_04D14A
Fold over parental 293T [1]: 202 fold | Fold over parental 293T [2]: 44 fold | Fold over buffer [3]: 17 fold

B13: 85801_02K24 (antibody, V domains shown)
VH: QVQLQESGPGLVKPSETLSLTCTVSGGSISSYDWSWIRQSAGKGLEWIGRIYTSGSTIYNPSLKSRVTMSVDTSKNEISLKLSSVTAADTAFYYCAKDRGNYPHDAFDIWGQGTMITVSS
VL: B8 VL with Y32F, C87Y, R93G, Q100P, L104V, E105D
notes: also called 85801_02K24A
Fold over parental 293T [1]: 130 fold | Fold over parental 293T [2]: 53 fold | Fold over buffer [3]: 33 fold

B16: 85801_04D10 (antibody, V domains shown)
VH: EVQLLESGGGLVQPGGSLRLSCAASGFTFSSYAMSWVRQAPGKGLEWVAGISGSGGGIYYADSVKGRFTISRDNSKNTLYLQLNSLRADDTAVYYCARRLIGYWYFDLWGRGTLVPVSS
VL: B17 VL with N17D, N30S, N93S, F96P, P100G, D105E
notes: also called 85801_04D10A
Fold over parental 293T [1]: 76 fold | Fold over parental 293T [2]: 20 fold | Fold over buffer [3]: 42 fold
